Assay results: PMC5670239, “Structural basis for mutually exclusive co-transcriptional nuclear cap-binding complexes with either NELF-E or ARS2” (Nature Communications, 2017)
Ends that are not written are not given here.

Assays:
[1] = target: T1, m^7GTP-CBC (Homo sapiens, UniProt P52298+Q09161); experiment: ITC, binding to CBC in the presence of the cap analogue m^7GTP; details: for Kd: ITC, 25 °C, 20 mM HEPES, 120 mM NaCl, 2 mM TCEP, pH 7.8, CBC bound to m^7GTP, mean ± SD of at least two independent experiments, SD
T1 construct: 6-histidine tag (pETM30 vector) (N, cleaved yes); made in house; host or cells: CBP20 in E. coli Rosetta 2; CBP80ΔNLS in High Five insect cells; heterodimer reconstituted on Ni-sepharose
T1 sequence (Q09161 20-790): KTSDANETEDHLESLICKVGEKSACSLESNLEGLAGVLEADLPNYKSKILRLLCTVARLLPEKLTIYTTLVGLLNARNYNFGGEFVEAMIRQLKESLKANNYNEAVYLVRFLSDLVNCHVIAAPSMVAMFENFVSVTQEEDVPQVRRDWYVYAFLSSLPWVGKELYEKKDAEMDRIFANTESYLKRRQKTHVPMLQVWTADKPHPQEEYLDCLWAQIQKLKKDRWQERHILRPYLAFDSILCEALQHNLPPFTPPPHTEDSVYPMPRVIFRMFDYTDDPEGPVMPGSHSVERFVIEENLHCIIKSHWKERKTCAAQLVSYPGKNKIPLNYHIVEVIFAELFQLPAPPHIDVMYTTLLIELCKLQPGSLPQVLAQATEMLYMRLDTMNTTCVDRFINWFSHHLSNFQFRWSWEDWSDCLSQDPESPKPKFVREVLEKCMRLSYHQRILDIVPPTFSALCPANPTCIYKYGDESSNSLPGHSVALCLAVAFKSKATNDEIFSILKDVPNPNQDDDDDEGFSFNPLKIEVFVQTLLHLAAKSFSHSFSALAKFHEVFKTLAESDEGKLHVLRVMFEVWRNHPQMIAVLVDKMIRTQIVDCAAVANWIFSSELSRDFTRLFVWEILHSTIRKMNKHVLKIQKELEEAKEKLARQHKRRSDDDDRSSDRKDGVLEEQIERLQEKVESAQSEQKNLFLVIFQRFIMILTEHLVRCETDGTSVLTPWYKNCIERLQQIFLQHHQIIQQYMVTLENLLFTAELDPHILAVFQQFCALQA
T1 sequence (P52298 1-156): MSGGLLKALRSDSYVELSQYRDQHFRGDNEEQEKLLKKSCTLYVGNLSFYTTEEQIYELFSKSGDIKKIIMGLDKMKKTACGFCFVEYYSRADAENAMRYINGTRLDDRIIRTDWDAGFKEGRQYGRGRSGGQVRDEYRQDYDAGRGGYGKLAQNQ
Description: (§1) hARS2 isoform-4 (871 residues, UniProt:Q9BXP5-4, also known as isoform-e, NP_001122326) constructs (residues 147–871, 147–845, 763–871, 763–845, 827–871) hNELF-E (NM_002904.5) (244–380, 244–360) and hPHAX (NM_032177.3) (1–394, 103–294, 103–308, 103–327) were cloned into pETM11 (EMBL). Full-length hNELF-E (1–380) was cloned into pFASTBac and CBP20 into pETM30. Primers used are given in Supplementary Table 2. All constructs were expressed in E. coli Rosetta 2 (Novagen), except full-length NELF-E and CBP80ΔNLS (CBP80 with residues 1–19 deleted[2]), which were expressed in High Five insect cells (Life Technology). Cells were harvested and lysed by sonication in lysis buffer containing 50 mM HEPES, pH 7.8, 300 mM NaCl, 10% (v/v) glycerol, 5 mM β-mercaptoethanol. Lysates were clarified by centrifugation and applied on an equilibrated Ni-sepharose column (GE Healthcare), washed with 20 mM imidazole in lysis buffer, and eluted with 300 mM imidazole in lysis buffer. While dialysing into 20 mM HEPES, pH 7.8, 120 mM NaCl, 10% (v/v) glycerol, 5 mM β-mercaptoethanol, the N-terminal 6-histidine-tag was cleaved with His-tagged Tobacco Etch Virus (TEV) protease overnight in a ratio 1:100 mg TEV per mg protein. The cleaved protein was further purified first on Ni-sepharose to remove TEV and then using an anion exchange column (HiTrap Q, GE Healthcare) followed if necessary by a Heparin column (GE Healthcare). In both cases a NaCl gradient from 50 to 800 mM in 20 mM HEPES 7.8, 0.5 mM tris(2-carboxyethyl)phosphine was used. To reconstitute the CBC heterodimer, cleared His-tagged CBP20 lysate was first immobilised on a Ni-sepharose column. After washing the column with lysis buffer, the cleared CBP80 lysate was applied to the column and further purification steps performed as described above. To remove the access of CBP20 the flow through of the Ni-column after TEV cleavage was loaded on an anion exchange column (HiTrap Q, GE Healthcare) and CBC eluted by a NaCl gradient as described above. In the text we refer to CBP80ΔNLS and CBP80ΔNLS-CBP20 as CBP80 and CBC, respectively. ARS2^845–871, NELF-E^354–380, and NELF-E^360–380 peptides, with or without FAM label at the N-terminus, were purchased from GenScript.

[2] = target: T1, m^7GTP-CBC; experiment: Fluorescence polarisation with FAM-labelled C-terminal peptides; type: binding; details: 40 nM FAM peptide, 25 °C, n = 3; for Change of fluorescence polarisation on addition of labelled peptide to m^7GTP-CBC: 20 mM HEPES pH 7.8, 120 mM NaCl, 2 mM TCEP, ex 495 / em 515 nm
Protocol: (§2) Fig. 4 Incompatibility of ARS2-PHAX and NELF-E binding to CBC. a, b Competition on m^7GTP-sepharose. a In separate experiments, different amounts of ARS2^147–871 were added to preformed CBC–NELF–E complex immobilised on m^7GTP-sepharose. […] The fluorophore FAM is represented with a star. Note that different constructs of NELF-E and ARS2 were used in c, d, and e compared to f, g, and h and are therefore represented by slightly different shapes. Error bars show the SD of three experiments
Fluorescence anisotropy binding assays were performed with N-terminal FAM-labelled ARS2^845–871 and […] peptides. 40 nM peptides were titrated with increasing concentrations of proteins in 20 mM HEPES, pH 7.8, 120 mM NaCl, 2 mM tris(2-carboxyethyl)phosphine. For the competition assay CBC–ARS2 and CBC–NELF–E complexes were preformed in the presence of 25 µM m^7GTP using 40 nM ARS2^827–871(FAM) peptide together with 60 nM CBC and 40 nM NELF-E^354–380(FAM) peptide with 1 µM CBC. […] To observe a change in polarisation at reasonable protein concentrations, CBC and NELF-E^244–380 concentrations that saturate half of the FAM-labelled peptides were used to preform the individual complexes. Fluorescence polarisation was measured at 25 °C with a microplate reader (CLARIOstar BMG LABTECH) using an excitation wavelength of 495 nm and emission wavelength of 515 nm. For analysis the polarisation value for the peptide alone was subtracted from the measurements.

[3] = target: T2, CBC (Homo sapiens, UniProt P52298); experiment: Size exclusion chromatography (gel filtration) co-elution with CBC, with m^7GTP; type: binding; details: gel filtration with 500 µM m^7GTP, fractions analysed by SDS-PAGE
T2 sequence (P52298 1-156): T1 sequence (P52298 1-156)
T2 sequence (Q09161 20-790 partner): T1 sequence (Q09161 20-790)
Protocol: (§3) Fig. 1 The interaction of CBC with ARS2 is enhanced in the presence of m^7GTP. a Schematic diagram of the domain structure of ARS2 based on ref. [26]. b Gel filtration chromatogram and Coomassie-stained SDS-PAGE of CBC-ARS2 in the presence and absence of m^7GTP. Purified recombinant CBC and ARS2^147–871 were mixed with (orange) or without (blue) 500 µM m^7GTP and subjected to gel filtration. Their elution profiles were overlaid (left) and single fractions analysed by SDS-PAGE (middle and right). Purified recombinant CBC and C-terminally truncated ARS2^147–845 were mixed with 500 µM m^7GTP and analysed in a similar way (bottom left). c ITC data and curve fit to derive the affinity of different ARS2 constructs for CBC. CBC or m^7GTP-CBC in the sample cell was titrated by ARS2. […] K D values and standard deviation represent the average from at least two independent experiments. d Sequence alignment of the C-terminus of ARS2. Conserved residues are highlighted in red. Figure made with ESPript[54]
(§4) Fig. 2 The interaction of CBC with NELF-E is enhanced in the presence of m^7GTP. a Schematic diagram of the domain structure of NELF-E. b Gel filtration chromatogram and Coomassie-stained SDS-PAGE of CBC-NELF-E in the presence and absence of m^7GTP. […] Their elution profiles were overlaid (left) and single fractions analysed by SDS-PAGE (middle and right). […]

[4] = target: T2, CBC; experiment: Size exclusion chromatography (gel filtration) co-elution with CBC, without m^7GTP; type: binding; details: fractions analysed by SDS-PAGE, absence of m^7GTP
Protocol: as §3, §4

[5] = tested on: CBC–PHAX complex immobilised on m^7GTP-sepharose; experiment: Displacement pull down on m^7GTP-sepharose, CBC–PHAX; type: binding, human; details: different amounts added, 1 h at 4 °C, flow through and elution by SDS-PAGE
Protocol: as §2
CBC-NELF-E^1–380 or CBC-PHAX^1–394 were immobilised on m^7GTP-sepharose and incubated for 1 h at 4 °C with different amounts of ARS2^147–871 or NELF-E^1–380 in 20 mM HEPES, pH 7.8, 120 mM NaCl, 2 mM tris(2-carboxyethyl)phosphine, respectively. The flow through, as well as the elution from the beads after extensive washing, was analysed by SDS-PAGE followed by Coomassie staining.

[6] = target: m^7GTP-CBCmut; experiment: ITC, binding to mutated CBC in the presence of m^7GTP; parameters: species or system human; details: with m^7GTP; for Kd: 25 °C, pH 7.8, CBCmut = CBP20 Y50A + CBP80 Y461A/R610E/H651A, mean ± SD of 2 experiments
Protocol: For CBC, a triple mutant in CBP80 (Y461A/R610E/H651A) was combined with various mutations in CBP20 (Y50A, Y50A/Y89A, or Y50A/Y89A/D107R).
ITC experiments were performed on a MicroCal ITC200 system (Malvern). Proteins were dialyzed overnight in buffer 20 mM HEPES, 120 mM NaCl, 2 mM tris(2-carboxyethyl)phosphine, pH 7.8. Injections of 1.5 µl protein A were added at an interval of 120–180 s into 205 µl of protein B in the cell, with a stirring speed of 800 rpm at 25 °C. The experimental data were analysed with MicroCal ITC Origin and were fitted to a single-site binding equation.

[7] = tested on: CBC with triple mutants of both CBP20 and CBP80; experiment: m^7GTP-sepharose pull down with mutated CBC; type: binding, human; details: CBP80 Y461A/R610E/H651A combined with CBP20 Y50A/Y89A/D107R
Description: For CBC, a triple mutant in CBP80 (Y461A/R610E/H651A) was combined with various mutations in CBP20 (Y50A, Y50A/Y89A, or Y50A/Y89A/D107R). Binding of ARS2^827–871 to mutated CBC was first tested by m^7GTP-sepharose pull down (Supplementary Fig. 6).

[8] = target: T2, CBC; experiment: ITC, binding to CBC without cap analogue; details: ITC (MicroCal ITC200), 25 °C, 20 mM HEPES, 120 mM NaCl, 2 mM TCEP, pH 7.8, single-site fit; no cap analogue pre-bound; mean ± SD of at least two independent experiments; SD
Description: as §1, with “ARS2^845–871, NELF-E^354–380, and NELF-E^360–380 peptides, with or without FAM label at the N-terminus, were purchased from GenScript.” left out

PHAX: full-length human PHAX (phosphorylated adaptor for RNA export), residues 1–394
Kd [1]: 0.13 ± 0.05 µM

ARS2^845–871(FAM): N-terminal FAM-labelled ARS2 845–871 peptide ({FAM}-YPGKPRNRMVRGDPRAIVEYRDLDAPD; UniProt Q9BXP5 845-871, looked up, fragment) [reference compound]
Change of fluorescence polarisation on addition of labelled peptide to m^7GTP-CBC [2]: increase in fluorescence polarisation, indicating binding

NELF-E^354–380(FAM): N-terminal FAM-labelled NELF-E 354–380 peptide ({FAM}-PKGCHRDKRTQIVYSDDVYKENLVDGF; UniProt P18615 354-380, looked up, fragment) [reference compound]
Change of fluorescence polarisation on addition of labelled peptide to m^7GTP-CBC [2]: increase in fluorescence polarisation, indicating binding

NELF-E^1–380: full-length human NELF-E, expressed in High Five insect cells
Interaction with CBC by SEC in the presence of m^7GTP [3]: stabilised the complex
Interaction with CBC by SEC [4]: partially co-eluted
Displacement of PHAX from preformed CBC-PHAX^1–394 bound to m^7GTP-sepharose [5]: resulted in the displacement of PHAX^1–394

DKRTQIVYSDDVYKENLVDGF [NELF-E 360–380]
Kd [1]: 3.3 ± 1.1 µM

ARS2 827–871: human ARS2 isoform 4 residues 827–871, E. coli expressed construct (APYGAGRGNYDAFRGQGGYPGKPRNRMVRGDPRAIVEYRDLDAPD; isoform 4; UniProt Q9BXP5 827-871, looked up, fragment)
Kd [6]: ~12 µM
Kd ([6]; SD): 11.6 ± 1.1 µM
Reduction in affinity of CBCmut compared to wild-type CBC [6]: twelvefold
Change of polarisation on titration to m^7GTP-CBC-NELF-E^354–380(FAM) ([2]; competition, 1 µM CBC, 25 µM m^7GTP): decrease in polarisation
Co-elution with mutated CBC in m^7GTP-sepharose pull down [7]: abolished co-elution
Kd [8]: 12.2 ± 3.5 µM
Kd [1]: 1 ± 0.2 µM
Enhancement of the interaction with CBC when m^7GTP is bound ([1]; ratio of ITC K D without / with m^7GTP): twelve-fold

RNRMVRGDPRAIVEYRDLDAPDDVDFF [ARS2 845–871]
Kd [1]: 1.1 ± 0.16 µM

ARS2 827–871 F871D: ARS2 827–871 construct with F871D mutation (GRGNYDAFRGQGGYPGKPRNRMVRGDPRAIVEYRDLDAPDDVDFD)
Kd [1]: 1.8 ± 0.26 µM
